Data from the supplement of paper PMC9112550, “Optimization of the antimicrobial peptide Bac7 by deep mutational scanning” (BMC Biology, 2022).

Tested on: Escherichia coli TOP10
Assay: shrunken log2 fold change of peptide-encoding DNA abundance (4.5 h post-induction vs induction); higher = less antimicrobial activity (less host growth inhibition)
Conditions: time post-induction: 4.5 h; library: site-saturation at positions 5, 18, 19, 20
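Further: peptides expressed intracellularly from a pBAD plasmid library in pooled LB shake-flask culture, induced with 0.3% L-arabinose, DNA abundance read by NGS, three biological replicates, DESeq2 with apeglm shrinkage.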

RRIRPRPPRLPRPRPRPYKYPRP
shrunken log2 fold change: -1.13

RRIRSRPPRLPRPRPRPQSGPRP
shrunken log2 fold change: -0.101

RRIRARPPRLPRPRPRPKFHPRP
shrunken log2 fold change: 0.133

RRIRCRPPRLPRPRPRPSTIPRP
shrunken log2 fold change: 0.255

RRIRGRPPRLPRPRPRPTEWPRP
shrunken log2 fold change: 1.23

RRIRQRPPRLPRPRPRPLLIPRP
shrunken log2 fold change: -0.141

RRIRCRPPRLPRPRPRPDYSPRP
shrunken log2 fold change: -0.179

RRIRARPPRLPRPRPRPMVGPRP
shrunken log2 fold change: 0.548

RRIRQRPPRLPRPRPRPRPMPRP
shrunken log2 fold change: 0.303

RRIRKRPPRLPRPRPRPMLQPRP
shrunken log2 fold change: 0.122

RRIRTRPPRLPRPRPRPTYEPRP
shrunken log2 fold change: -0.174

RRIRIRPPRLPRPRPRPPIVPRP
shrunken log2 fold change: -0.68

RRIRERPPRLPRPRPRPMRVPRP
shrunken log2 fold change: 0.501

RRIRDRPPRLPRPRPRPHNEPRP
shrunken log2 fold change: -0.701

RRIRRRPPRLPRPRPRPLIMPRP
shrunken log2 fold change: -0.325

RRIRERPPRLPRPRPRPCQIPRP
shrunken log2 fold change: -0.193

RRIRIRPPRLPRPRPRPPKAPRP
shrunken log2 fold change: -0.0729

RRIRMRPPRLPRPRPRPHRVPRP
shrunken log2 fold change: -0.0492

RRIRHRPPRLPRPRPRPLPNPRP
shrunken log2 fold change: -0.156

RRIRKRPPRLPRPRPRPDLRPRP
shrunken log2 fold change: 0.103

RRIRWRPPRLPRPRPRPARSPRP
shrunken log2 fold change: 0.252

RRIRIRPPRLPRPRPRPMGFPRP
shrunken log2 fold change: 0.0523

RRIRNRPPRLPRPRPRPNMPPRP
shrunken log2 fold change: -0.407

RRIRPRPPRLPRPRPRPDFWPRP
shrunken log2 fold change: 0.527

RRIRVRPPRLPRPRPRPIHTPRP
shrunken log2 fold change: -0.305

RRIRGRPPRLPRPRPRPQNPPRP
shrunken log2 fold change: 0.0251

RRIRHRPPRLPRPRPRPYPCPRP
shrunken log2 fold change: -0.152

RRIRERPPRLPRPRPRPLIEPRP
shrunken log2 fold change: -0.287

RRIRHRPPRLPRPRPRPQVTPRP
shrunken log2 fold change: -0.0667

RRIRFRPPRLPRPRPRPRDHPRP
shrunken log2 fold change: 0.015

RRIRARPPRLPRPRPRPLTGPRP
shrunken log2 fold change: 0.172

RRIRIRPPRLPRPRPRPSQLPRP
shrunken log2 fold change: -0.385

RRIRFRPPRLPRPRPRPHRYPRP
shrunken log2 fold change: -0.402

RRIRYRPPRLPRPRPRPMENPRP
shrunken log2 fold change: -0.207

RRIRIRPPRLPRPRPRPMMNPRP
shrunken log2 fold change: -0.442

RRIRSRPPRLPRPRPRPSYLPRP
shrunken log2 fold change: -0.707

RRIRHRPPRLPRPRPRPPKAPRP
shrunken log2 fold change: 0.0427

RRIRHRPPRLPRPRPRPDPGPRP
shrunken log2 fold change: -0.199

RRIRCRPPRLPRPRPRPHPEPRP
shrunken log2 fold change: -0.168

RRIRYRPPRLPRPRPRPPHWPRP
shrunken log2 fold change: 0.203

RRIRPRPPRLPRPRPRPLLVPRP
shrunken log2 fold change: 0.1

RRIRCRPPRLPRPRPRPYACPRP
shrunken log2 fold change: -0.0609

RRIRRRPPRLPRPRPRPQRGPRP
shrunken log2 fold change: 0.399

RRIRPRPPRLPRPRPRPACYPRP
shrunken log2 fold change: -0.199

RRIRCRPPRLPRPRPRPHAAPRP
shrunken log2 fold change: 0.31

RRIRGRPPRLPRPRPRPPQCPRP
shrunken log2 fold change: 0.713

RRIRMRPPRLPRPRPRPMHMPRP
shrunken log2 fold change: 0.0153

RRIRRRPPRLPRPRPRPYDLPRP
shrunken log2 fold change: -0.546

RRIRKRPPRLPRPRPRPMYCPRP
shrunken log2 fold change: -0.233

RRIRQRPPRLPRPRPRPHQEPRP
shrunken log2 fold change: -0.00692

RRIRNRPPRLPRPRPRPDSKPRP
shrunken log2 fold change: -0.335

RRIRMRPPRLPRPRPRPAEWPRP
shrunken log2 fold change: 0.375

RRIRHRPPRLPRPRPRPPGWPRP
shrunken log2 fold change: 0.424

RRIRSRPPRLPRPRPRPVPRPRP
shrunken log2 fold change: 0.427

RRIRGRPPRLPRPRPRPCPMPRP
shrunken log2 fold change: 1.17

RRIRRRPPRLPRPRPRPFFGPRP
shrunken log2 fold change: 0.159

RRIRDRPPRLPRPRPRPCSKPRP
shrunken log2 fold change: 0.0354

RRIRTRPPRLPRPRPRPSHTPRP
shrunken log2 fold change: -0.0162

RRIRWRPPRLPRPRPRPHRDPRP
shrunken log2 fold change: -0.215

RRIRRRPPRLPRPRPRPLVLPRP
shrunken log2 fold change: 0.0551

RRIRVRPPRLPRPRPRPVFEPRP
shrunken log2 fold change: -0.0665

RRIRHRPPRLPRPRPRPIIIPRP
shrunken log2 fold change: -0.247

RRIRHRPPRLPRPRPRPTPQPRP
shrunken log2 fold change: 0.541

RRIRHRPPRLPRPRPRPGRKPRP
shrunken log2 fold change: 0.00144

RRIRQRPPRLPRPRPRPCLKPRP
shrunken log2 fold change: -0.286

RRIRARPPRLPRPRPRPACCPRP
shrunken log2 fold change: 0.658

RRIRVRPPRLPRPRPRPAYQPRP
shrunken log2 fold change: -0.264

RRIRPRPPRLPRPRPRPLWKPRP
shrunken log2 fold change: 0.0546

RRIRWRPPRLPRPRPRPSFLPRP
shrunken log2 fold change: -0.351

RRIRGRPPRLPRPRPRPGNGPRP
shrunken log2 fold change: 0.434

RRIRCRPPRLPRPRPRPTSFPRP
shrunken log2 fold change: -0.306

RRIRQRPPRLPRPRPRPRNNPRP
shrunken log2 fold change: -0.173

RRIRKRPPRLPRPRPRPQLPPRP
shrunken log2 fold change: -0.105

RRIRKRPPRLPRPRPRPSEVPRP
shrunken log2 fold change: -0.524

RRIRVRPPRLPRPRPRPYWWPRP
shrunken log2 fold change: -0.208

RRIRYRPPRLPRPRPRPNGIPRP
shrunken log2 fold change: -0.02

RRIRKRPPRLPRPRPRPNLQPRP
shrunken log2 fold change: 0.279

RRIRIRPPRLPRPRPRPDNDPRP
shrunken log2 fold change: -0.115

RRIRARPPRLPRPRPRPHDVPRP
shrunken log2 fold change: 0.0276

RRIRNRPPRLPRPRPRPANEPRP
shrunken log2 fold change: -0.00326

RRIRERPPRLPRPRPRPWICPRP
shrunken log2 fold change: -0.378

RRIRARPPRLPRPRPRPWVWPRP
shrunken log2 fold change: 0.596

RRIRDRPPRLPRPRPRPQSQPRP
shrunken log2 fold change: 0.112

RRIRKRPPRLPRPRPRPKRLPRP
shrunken log2 fold change: 0.0257

RRIRCRPPRLPRPRPRPKSIPRP
shrunken log2 fold change: -0.349

RRIRIRPPRLPRPRPRPRLEPRP
shrunken log2 fold change: 0.117

RRIRYRPPRLPRPRPRPRQKPRP
shrunken log2 fold change: 0.114

RRIRGRPPRLPRPRPRPQQTPRP
shrunken log2 fold change: 1.6

RRIRNRPPRLPRPRPRPHFTPRP
shrunken log2 fold change: -0.0512

RRIRMRPPRLPRPRPRPQAAPRP
shrunken log2 fold change: 0.87

RRIRYRPPRLPRPRPRPHKIPRP
shrunken log2 fold change: -0.226

RRIRFRPPRLPRPRPRPRKYPRP
shrunken log2 fold change: -0.177

RRIRQRPPRLPRPRPRPSEKPRP
shrunken log2 fold change: -0.018

RRIRCRPPRLPRPRPRPITVPRP
shrunken log2 fold change: -0.222

RRIRVRPPRLPRPRPRPAGRPRP
shrunken log2 fold change: 1.22

RRIRNRPPRLPRPRPRPGGTPRP
shrunken log2 fold change: 0.154

RRIRYRPPRLPRPRPRPKFVPRP
shrunken log2 fold change: -0.416

RRIRGRPPRLPRPRPRPDTVPRP
shrunken log2 fold change: -0.116

RRIRHRPPRLPRPRPRPNVDPRP
shrunken log2 fold change: 0.187

RRIRHRPPRLPRPRPRPARRPRP
shrunken log2 fold change: 0.143

RRIRLRPPRLPRPRPRPEGWPRP
shrunken log2 fold change: 0.862

RRIRGRPPRLPRPRPRPADPPRP
shrunken log2 fold change: 0.585

RRIRHRPPRLPRPRPRPVITPRP
shrunken log2 fold change: 0.0477

RRIRGRPPRLPRPRPRPFAEPRP
shrunken log2 fold change: 2.46

RRIRGRPPRLPRPRPRPHMDPRP
shrunken log2 fold change: 0.0325

RRIRSRPPRLPRPRPRPSVGPRP
shrunken log2 fold change: 0.0671

RRIRMRPPRLPRPRPRPSGVPRP
shrunken log2 fold change: 0.0246

RRIRKRPPRLPRPRPRPETMPRP
shrunken log2 fold change: 0.0612

RRIRHRPPRLPRPRPRPFFSPRP
shrunken log2 fold change: -0.253

RRIRHRPPRLPRPRPRPWTLPRP
shrunken log2 fold change: -0.00151

RRIRARPPRLPRPRPRPDSKPRP
shrunken log2 fold change: 0.149

RRIRQRPPRLPRPRPRPPRDPRP
shrunken log2 fold change: 1.25

RRIRCRPPRLPRPRPRPMHPPRP
shrunken log2 fold change: -0.00769

RRIRHRPPRLPRPRPRPWLDPRP
shrunken log2 fold change: -0.377

RRIRQRPPRLPRPRPRPVFCPRP
shrunken log2 fold change: 0.0139

RRIRMRPPRLPRPRPRPTLRPRP
shrunken log2 fold change: 0.334

RRIRDRPPRLPRPRPRPTTGPRP
shrunken log2 fold change: 0.673

RRIRGRPPRLPRPRPRPLLVPRP
shrunken log2 fold change: 0.781

RRIRLRPPRLPRPRPRPTYTPRP
shrunken log2 fold change: -0.317

RRIRCRPPRLPRPRPRPRCMPRP
shrunken log2 fold change: -0.143

RRIRMRPPRLPRPRPRPTTIPRP
shrunken log2 fold change: -0.198

RRIRFRPPRLPRPRPRPWRDPRP
shrunken log2 fold change: -0.136

RRIRQRPPRLPRPRPRPERSPRP
shrunken log2 fold change: 0.0688

RRIRLRPPRLPRPRPRPIQCPRP
shrunken log2 fold change: -0.301

RRIRSRPPRLPRPRPRPFVNPRP
shrunken log2 fold change: -0.99

RRIRGRPPRLPRPRPRPQSGPRP
shrunken log2 fold change: 0.0868

RRIRKRPPRLPRPRPRPLEPPRP
shrunken log2 fold change: 0.238

RRIRTRPPRLPRPRPRPHFWPRP
shrunken log2 fold change: 0.0783

RRIRRRPPRLPRPRPRPSTEPRP
shrunken log2 fold change: 0.664

RRIRERPPRLPRPRPRPTMYPRP
shrunken log2 fold change: -0.162

RRIRIRPPRLPRPRPRPNFFPRP
shrunken log2 fold change: 0.00639

RRIRTRPPRLPRPRPRPAEQPRP
shrunken log2 fold change: 0.0493

RRIRTRPPRLPRPRPRPAAYPRP
shrunken log2 fold change: -0.000154

RRIRMRPPRLPRPRPRPHRHPRP
shrunken log2 fold change: -0.344

RRIRQRPPRLPRPRPRPACIPRP
shrunken log2 fold change: -0.165

RRIRHRPPRLPRPRPRPFTMPRP
shrunken log2 fold change: -0.349

RRIRFRPPRLPRPRPRPVDRPRP
shrunken log2 fold change: 0.123

RRIRMRPPRLPRPRPRPYVKPRP
shrunken log2 fold change: -0.209

RRIRGRPPRLPRPRPRPTHWPRP
shrunken log2 fold change: 0.629

RRIRRRPPRLPRPRPRPHEKPRP
shrunken log2 fold change: 0.0358

RRIRWRPPRLPRPRPRPYERPRP
shrunken log2 fold change: -0.0653

RRIRHRPPRLPRPRPRPKVHPRP
shrunken log2 fold change: -0.0663

RRIRMRPPRLPRPRPRPMCGPRP
shrunken log2 fold change: 0.00224

RRIRWRPPRLPRPRPRPHEGPRP
shrunken log2 fold change: -0.102

RRIRDRPPRLPRPRPRPALYPRP
shrunken log2 fold change: 0.468

RRIRGRPPRLPRPRPRPFGQPRP
shrunken log2 fold change: 0.368

RRIRIRPPRLPRPRPRPFQGPRP
shrunken log2 fold change: 0.0801

RRIRCRPPRLPRPRPRPGLIPRP
shrunken log2 fold change: 4.01e-05

RRIRYRPPRLPRPRPRPRGGPRP
shrunken log2 fold change: 0.139

RRIRRRPPRLPRPRPRPHNMPRP
shrunken log2 fold change: -0.697
